The values that follow come from doi:10.1101/2025.01.21.634112.

Assay [1] deals with human von Willebrand Factor (VWF) (human) (UniProt P04275).
Assay [2] concerns the target Monodelphis domestica von Willebrand Factor (VWF) (Monodelphis domestica).

Turning to “botrocetin from Bothrops jararaca (complex)”, in assay [1], the reduction in the overall extent of platelet adhesion to collagen under flow (60 dyn/cm^2, 10 min) in human PRP with 4 ug/mL botrocetin, compared to the negative control was 66%. For the same substance, the reduction in the overall extent of platelet adhesion to collagen under flow (60 dyn/cm^2, 10 min) in opossum PRP with 4 ug/mL botrocetin, compared to the negative control in assay [2] worked out at 39%.
